Test results from PMC6044470.

Biological target: Chaetomium thermophilum Cdc48 (Chaetomium thermophilum)
Experiment: cryo-EM structure

Row | stoichiometry N | Substance
1 | 6 | Chaetomium thermophilum Cdc48 (enzyme)
2 | 1 | Ufd1/Npl4 heterodimer (UN) from Chaetomium thermophilum (complex)
